Experimental data as given in the DeepSol protein solubility set.

Test: soluble on expression in E. coli; label from the status in PepcDB or PDB records

Sequence | soluble on expression in E. coli
MTGGFTPDSGRYHLYISHACPWAHRTMIFRTLKGLEDHITISAVHPDMLGEGWTFEPDDNGATGDTLYNSAFARDIYTRADPRFTGRVTVPILWDKQRETIVSNESSEIIRMFNAAFNGLTGNSDDYWPEPLRDAIAPVNERIYDTFNNGVYKAGFATTQQAYDAAIVPLFDTLDWLEERLSHNRYLMGDQLTEADWRLFTTLVRFDPVYHLHFKCNRKRIVDYPNLWGYTRELYQTPGVADTVNFDHIVRHYHYSHETINPNRIIPINPVLDFHRPHGRGLEHHHHHH | not soluble
MDICSRNKKLTIRRPAILVALALLLCSCKSTPPESMVTPPAGSKPPATTQQSSQPMRGIWLATVSRLDWPPVSSVNISNPTSRARVQQQAMIDKLDHLQRLGINTVFFQVKPDGTALWPSKILPWSDLMTGKIGENPGYDPLQFMLDEAHKRGMKVHAWFNPYRVSVNTKPGTIRELNSTLSQQPASVYVQHRDWIRTSGDRFVLDPGIPEVQDWITSIVAEVVSRYPVDGVQFDDYFYTESPGSRLNDNETYRKYGGAFASKADWRRNNTQQLIAKVSHTIKSIKPGVEFGVSPAGVWRNRSHDPLGSDTRGAAAYDESYADTRRWVEQGLLDYIAPQIYWPFSRSAARYDVLAKWWADVVKPTRTRLYIGIAFYKVGEPSKIEPDWMINGGVPELKKQLDLNDAVPEISGTILFREDYLNKPQTQQAVSYLQSRWGS | soluble
MGSDKIHHHHHHMTKLQLKYRELKIISVIAASENISHAATVLGIAQANVSKYLADFESKVGLKVFDRTTRQLMLTPFGTALLPYINDMLDRNEQLNNFIADYKHEKRGRVTIYAPTGIITYLSKHVIDKIKDIGDITLSLKTCNLERNAFYEGVEFPDDCDVLISYAPPKDESLVASFITQYAVTAYASQRYLEKHPISRPDELEHHSCILIDSMMIDDANIWRFNVAGSKEVRDYRVKGNYVCDNTQSALELARNHLGIVFAPDKSVQSDLQDGTLVPCFQQPYEWWLDLVAIFRKREYQPWRVQYVLDEMLREIRHQLAQSQQLRPEQAAESED | not soluble
GPGSMTAAVDLEGVALHGHMKGVTMLKFNRDGDLLFSSAKDTNCSACCWQVKTGKLFGSYTTVGQVEGRTYDAAMVALDVNRESTLLATASAGEEVLLWSVESGALLGSVSRSLSSGASVGFSHDDTLMMVATKGRSSTNSAIQVYNVPFTVPKAGEDIAPVKTPFTTFSTFETPDTITWAAWGPTNETIYYSEGGYMNILDVEANKVIRSRQIHEDENEVINRFSWDPNYLALATASTDKTSHLIDFRDLATIQVYRSDVPVNDVSISPNADHVILGGGMDAASVTTQGGQSIFEVKFFHKVHGHQLGQLRCHFGTINAMSFHPDGRGFASASYDGLIKMYRFGDSYDSTPGAQPLWTL | not soluble
SLTQKEQEEKLYMMLPVFNRVFGNAPPNTMTEKFSDLLQFTTQVSRLMVTEIRRRASNKSTEAASRAIVQFLEINQSEEASRGWMLLTTINLLASSGQKTVDCMTTMSVPSTLVKCLYLFFDLPHVPEAGGGAQNELPLAERRGLLQKAFVQILVKLCSFVSPAEELAQKDDLQLLFSAITSWCPPYNLPWRKSAGEVLMTISRHGLSVNVVKYIHEKECLSTCVQNMQQSDDLSPLEIVEMFAGLSCFLKDSSDVSQTLLDDFRIWQGYNFLCDLLLRLEQGKEAECRDALKDLVSLVTSLTTYGVSELKPAGVTTGAPFLLPGFAVPQPAGKGHSVRNIQAFAVLQNAFLKAKTNFLAQIILDAITNIYMADNANYFILESQHTLSQFAEKISKLPEVQNKYFEMLEFVVFSLNYIPCKELISVSILLKSSSSYHCSIIAMKTLLKFTRHDYIFKDVFREVGLLEVMVNLLHKYAALLKDPAQALN | soluble
MAAESATTETVEKSGNEESTVEVKVNGEAQNPPQESAKPAESVEDDDEPAPAKKRSGGDSEEKEDEAAEDGPEDGEEKSNLDDDQNVENPAYIPKTGRFYMHDDNRRGDVNNSQVQDDDSDDRRNLKKSRADCDWKHDRFDEKFQRPKTKKQIVTKYGFDIRHKDGTPIQDGEEIDAPAPESTEEESSDARQVSRQQKDRRVSSTTRGKVGKSGTSRRPMKQREREDTVDESKGEEEEDQGVRPAQKRQVKQQEKPRKQKPAAPPSSEENEEDEDDGAIRRGQRRAVPLRRGTTSGPPSRLRGRMSHPMGPPRRSSGAPPSSASNRRPVESSSRGPPPPPSSSSRRDYSHQGDRNDDRFENHRRGVIRGASRGGGTVTRGTGGYGRTGAIRGGVRGSGAPRYGVRRTDTSEQSEGYQRGGSGTDYSSPRPNHQSDRSYQASSTNFRGGSHPHPSANVYPSSRGGYSSNNADYASRGGGGYHGPPQHHNNHHNHQQKRFVQGPPPPMVAVGVVPGNVVPPPQMTRGSTHGGNQHNGGGGGGSGGQQRIRQPTDVVYFDPQQQQGTRQLPPRSKKVIPIVDPKDHQ | not soluble
IDIKDVELTADNGKPVYATFFCPKEEIKAAVVIAPALGVDKIFYQDFALWLASYGYLVTTFDYSSMGSADKVHYKESDTTITDWAVFDCKKILEQVSIEIKDKD | not soluble
MGRGRAKAKQTKVARELKYSSPQTDFQRLQRELSGTGTDRLDGDGPSDDDSWNDEDDWRR | not soluble
MIKYARQIYSTKQEVIMATYFSDNLTADQQNQVQQIIQQFQHPTLQKDLIVLNTLKKVEKGGDTLRIELQLPFAWNSGAEQLKQAVSDALLKATDCKLIKWAVAYQIATLKRANNQPAVKGVKNIIAVSSGKGGVGKSSVSVNLALALQAQGARVGILDADIYGPSIPHMLGAADQRPTSPDNQHITPIKAHGLSANSIGFLMNEDSATIWRGPMASSALSQLLNETLWDSLDYLVIDMPPGTGDIQLTLSQQIPVTGAVVVTTPQDIALLDAVKGISMFERVSVPVLGIVENMSMHICSECGHHEAIFGTGGAEKMAEKYNVKVLAQLPLHIRIREDLDAGNPTVVRVPENEISQAFLQLAEKVSTELYWQGSVIPSEILFKEVKLEHHHHHH | soluble
MTYVFGPVSSKRLGQSLGVDLLPSKSCTWNCIYCQLGRTTAFVTERREFFPKEEILSEILETVASGKPIDWITFVGSGETTLYKGLDWLIAEVKKISKIPVAVITNGSLLSDPEVRRELLEADAVLPSLNAGSPELFERIDRPAPGFTFEKHVEGLRLFRQEYRGKLWVEVMLIRGVNDSEEALKEMAAVLAEIRPDMIHLVMPTRPAPESFVGIPDEELIQRAVFVLSSSAPVLHPAKGEMNLGSVGNLLDTVAGIASRHPVQERELEAALGKLFDGDAAKIRETMGELLASGRFEKVRQGSELYWIVKSA | not soluble
MFQISELANYRLCKRCSGRIFAYHYHGISNLERGEYLQFAIGCETGNPDFSFVDSKNCDICHGIFDRFDDIYDLVAKKVGDAQYSTFLVGSVFPQDTIRMEEDIQKKFGSSGESIKKEFNREFGKYFSARTGKEYSQDNPDLTILVNAEYLFVDVKIRSIYIYGKYRKFRRDMPQTRWIHRPNGDTVESVIGSVFTRYAGGTNYYLHGSGREDVDVRMLGNGREFVLEVENPRYREFELDPVVKEINTSGKGVEIFDVKFSSHDAVSEVKLEKHRKVYDALVVSDRPIDESRLLEACINLTGKNIYQRTPLRVAQRRSDLVRTRRIDQVDLVGVSANEAEILISAEAGTYIKELVNGDGGRTRPSLSEMYGSPLNVKELDVIKICRGEDLEHHHHHH | soluble
KKHILVYNEEADEALRQIKADRIELHQSFKASFERLNEIQQLAYTNAMTRDAALIQEPDFDPEQLESDYYRNLYRINTRRDNLNTHRALEN | not soluble
MSLKRYRTLLFDVDDTILDFQAAEALALRLLFEDQNIPLTNDMKAQYKTINQGLWRAFEEGKMTRDEVVNTRFSALLKEYGYEADGALLEQKYRRFLEEGHQLIDGAFDLISNLQQQFDLYIVTNGVSHTQYKRLRDSGLFPFFKDIFVSEDTGFQKPMKEYFNYVFERIPQFSAEHTLIIGDSLTADIKGGQLAGLDTCWMNPDMKPNVPEIIPTYEIRKLEELYHILNIENTVSEGHHHHHH | soluble
MSLNRKTPKTTDGLMRHIRDNKGIQINGSTEKNQLRNIGYFHGFKGYNFFLNKEEELNFEKFSELHALYSFDTEIKNLFYKHVMFCETAIKNRLLEIVCVNSGFDLDSLFQKSLTYYKSYSPGSSKYKKHLKNTTRLRRDIYDMIHEHCNSKPYIYHYIHQDRTVPLYAVFELFTLGNLVFFTRCMSQNLNIEAQKQLKLYSPAFDQSKDILGDIIDCMKGLRNAIAHNGVLYDCRFKTGETSNRLKEYLAVKMDIHNLDFDRIIDYLILLILICSGLSYSKAELQRIIRQFEQNLDFLRSKISESTYDKIIGVRARPKLRSLKNFINNLDFYLKTDEGHHHHHH | soluble
MAHHHHHHMDPSAFGMMAGRGMGRQTEVRDARDTAETIQISSIALLKMLIHGRAGVPLEVMGLMIGEEIDDYTIRVADVFSMPQTATGQSVEAVDPEYQVHMLDKLKLVGRHENVVGWYHSHPGFGCWLSSEDVMTAAGYENLTPRSVSVVVDPIQSVRGKVVIDAFRTIPQEIMAMRAMGEYVEPRQVTSNIGFLSKPSAVALSHNLNRQYYNLPVTFRKKNHELRLLLNVYRKGWQEGFKLEKAKVYQRETRTSIRELISLSKQAEKYITQGRDEDDLGNVGQINAMSHLQMEAENVIHRNLNQSIGAMINAVVF | not soluble
MKKLFGVGPDLLGDGKVLFEWSPKGNFLAAAGSKRKVNIFDRNGRLYDEVHFPPAEYPNPDGRACAAAQMQWDPAGEQLAILPAGNTHVFIWLAGNKEVQKIESEFKTQEFSCMAWSRNGMYLGVATVKGNVMMYNARERKKTPLVGKHTKKIVAAAWNKDNIMALAGQDKTVTLTDGVTGDTIKTFHLKDVPMDLCVSDKKEDGYSRREENTYSLNINRKTLYIMQCTAEGDRPLELAFLDTYGPIMKHSWFGDGYILLGYKNGYVAVVSSHSREISEEVHSGKYLDTLTDVTYCASLGRVAMAGANCVRVLDANADYNEIKGDAVDLDANQAIEKVGWTKDGQVLTVGTHNGYMHSFLASLPMVYDFHGTRVLYLTSLLEMTLLDVSRRQTVARIELENEPAFCGLGPSHAAVGMNNQAAFYSLGEKVGKVVQRREYLGTITAIKLNETQAAVLTGGHVVVHPISVEAGHAPDELDVVIPGPGQPANITCVALTPTFVITGSRTGTLSYYLSPDVTPVNEFRHDDGGIVRLFPQATGARLVFEDDKGALHLFNPVNDHVVAVPYTGRAETVMWDTSDTNVMVIGDGTALHSFLYVPVSLTGPQVQDLGKQAVPATHTPLTVCNGVVGCRLKSGAMDNVTLESHKMLQPGDAVARAAPAKRFAAALKLYKLRDAVECAKQLRQVESWRTLALAALDVLDIDTAINAYREIGDASMVLSLERVRQHEDRNLLSAHIMVLLEKDYGQAQELFLRSSVPRAALEMRMDLKHWTDALKLAEQLDPDAIATICKEHGAMLEMTGEYSNAKSHYQQALDALAVSVGPAQPDLEAACKAGIARTTLQLGDLRQGRQLAMQLNSQTLFKECALILEGLQQLTEAAEMYERAGQFERAASIYIQTKNFAAAAPLMARISSSKLQLQFAKAKEAEGRWQEAAAAYEAAGDMDAVVRLCLERLSQPQRAYAIVRKTQSVEAANQLSRFCLQSQDFGGAVEFLLMAGQMDQAFDIAMGHNEMDTFARIVAASAKPVDYQRIAQYYESRGEYDKAADMWSKCDQAPRAVQLYLKVGTNPALEKAVQVVEQTRSHQLGVLVLDYVNEEKDGTTRDEFRFKLNIAMGQFAEAARDALEMARFEQEEGNYRVAHDKLFGTVKQLEALNTKPPGELLRALMLLHSYTLVKSLIAINDHTTAARMLVRVARNISKFPKHIVPILTSTVIECHRANLKKTAFEYASMLMRPEYRDQVAVKYKKKIELMVRKPEKDPEELEEPLADCPFCNMPGPETELQCISCQNILPFDLATGKRMVLSDWAECPGCKFPASASQFIRIISAEGRCPM | not soluble
MAHHHHHHMPIIESDLLSLAYKAALSALLSEEIYNFGKFLNERHFTERLADSVQHAWILEWLRLCNDGKVEEFEQYAVAHKAEMAASPILSESFPSITKKVRLMALLHLVFYTPFNERTFTFDVIARRCAVDEERVEPLLLAALAQGIIMGKIDGLTQEVHITWVEPRVLSLQEVKELAVHVSRWKEKTLGLMQCMKEAAQETHN | not soluble
